Measured values reported in US20110287023A1 (AstraZeneca / MedImmune, published 2011).
Where no end group is shown, it is not given here.

Assays:
[1] = molecular target: T1, HMG2 coated on ELISA plates (Bos taurus (Bovine), UniProt P40673 2-209); experiment: direct ELISA, HMGB2 coated at 5 ug/mL, OD 490
T1 construct: also called HMGB2; HMBG2
T1 sequence: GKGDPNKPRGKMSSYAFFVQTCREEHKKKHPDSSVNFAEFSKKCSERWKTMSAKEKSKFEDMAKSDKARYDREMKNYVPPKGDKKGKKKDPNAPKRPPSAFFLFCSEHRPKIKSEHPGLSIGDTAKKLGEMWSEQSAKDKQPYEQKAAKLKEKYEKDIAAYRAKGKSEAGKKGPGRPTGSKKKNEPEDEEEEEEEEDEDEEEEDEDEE
Description: Binding to HMG1 vs. HMG2: Ultra high-binding ELISA plates (ThermoLab systems, #3855) were coated with either 5 ug/mL of Calf thymus HMGB1 or HMBG2 diluted in 10 mM Phosphate buffered saline (PBS), pH 7.2 and incubate overnight at 4 degrees. The plates were washed twice with Ca and Mg free PBS and 100 microliters of anti-HMGB1 antibody diluted in 10 mM PBS, pH 7.2+1% bovine serum albumin (BSA) to a final concentration of 10 ug/mL was added to each well and the plates were incubated 1 hour at room temperature. The wells were washed three times with 100 μl of PBS, pH 7.2. HRP labeled goat-anti-human IgG Kappa-chain (KPL, #14-10-10) and goat-anti-human IgG Lambda-chain (KPL, #14-10-11) were diluted in 10 mM PBS+1% BSA 1:1000 and 100 μl were added to each well and incubated for 1 hour at room temperature. The wells were then washed three times with 100 μl of PBS, pH 7.2. OPD substrate (Pierce chemical company, #34006) was prepared following the manufacturers instructions and 100 μl of prepared substrate was added to each well and the plates incubated at room temperature in the dark for 20-30 minutes. The reaction was stopped with the addition of 100 μl of 2M H₂SO₄, and the plates read on a plate reader at a wavelength of 490 nm.

[2] = molecular target: T2, HMG1 B Box peptide amino acids 91-169; experiment: ELISA, HMG1 B Box peptide 91-169 coated at 10 ug/ml, antibody titrated, anti-human IgG-HRP, OD 450
T2 construct: also called HMG1 peptide 91-169
T2 peptide: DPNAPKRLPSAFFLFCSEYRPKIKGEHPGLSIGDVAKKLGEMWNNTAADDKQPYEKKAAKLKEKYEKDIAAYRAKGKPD
Description: (§1) The plate was then blocked with 4% milk powder dissolved in PBS at 37° C. for 1 hour. The blocking solution was removed and replaced with human anti-HMG1 antibodies at various concentrations (see FIGS. 5A-B). […] HRP activity was detected with Sureblue HRP substrate (KPL). Plates were read at 450 nm using a Kinetic Microplate Reader (Molecular Devices). […] After washing and blocking with 1% BSA in PBS, the biotinylated peptides were individually added into the avidin coated wells and incubated for 30 min at room temperature. The serial diluted antibody G4, S16 and S6 at the initial concentration at 10 μg/ml were then transferred into the wells followed by adding mouse anti human IgG-HRP conjugate (Pierce). Detection was accomplished by adding 50 μl of tetramethylbenzidine (TMB) substrate (KPL) and the absorbance was read at 450 nm.

HMGB1 peptide 106-123 = molecular target: T3, HMGB1 peptide 106-123 (also: biotinylated, site and spacer not given here); experiment: ELISA, biotinylated peptide on NeutrAvidin plate, antibody serially diluted from 10 ug/ml, anti-human IgG-HRP, OD 450
T3 peptide: CSEYRPKIKGEHPGLSIG
Description: as §1

[3] = molecular target: T4, recombinant HMG1 produced in E. coli as a calmodulin binding protein (CBP) fusion (human); experiment: ELISA, coated RAGE-Fc, rHMG1 preincubated with antibody
T4 construct: also called rHMG1; rHMGB1
Description: HMG1 binding to RAGE-Ig by ELISA: 50 μl/well of RAGE-Fc fusion protein at 5 μg/ml in PBS was added to each well of an ELISA plate and incubated overnight at 4° C. The plate was then blocked with 200 μl of 5% milk at 37° C. for 1 hr and washed 3× with PBS/Tween. 50 μl/well of diluted HMGB1 solution. For dose curves, HMGB1 concentrations started at 4 ug/ml in PBS. For antibody blocking the HMGB1 was preincubated in another plate with human anti-HMG1 antibodies or buffer, then transferred to the RAGE-coated plate. The plates were then incubated at room temperature for 2 hours and washed 3×. To detect any HMG1 bound to the immobilized RAGE-Fc a mixture of biotinylated mouse anti-HMG1 mAbs (10D4, 4H11, 3E10 and 5C12) each at 1 ug/ml, total Ab: 4 ug/ml, were added to each well and the plate was incubated for 1 hour at room temperature. The plate was then washed and Strepavidin-HPR was added to each well and incubated 15 min. The plate was then washed 3× and blotted dry. 100 μl of TMB developing agent was added and the plate read at 650 nm. Values were calculated as percent of inhibition with HMG1 alone equal to 0% inhibition. The data in FIG. 9 and summarized in Table 1 represent the average of two separate experiments.

HMGB1 peptide 166-183 = molecular target: T5, HMGB1 peptide 166-183 (UniProt P09429 166-183, also: biotinylated, site not given here); experiment: ELISA, biotinylated peptide on NeutrAvidin plate, antibody serially diluted from 10 ug/ml, anti-human IgG-HRP, OD 450
T5 peptide (looked up): GKPDAAKKGVVKAEKSKK
Description: as §1

HMGB1 peptide 179-186 = molecular target: T6, HMGB1 peptide 179-186 (UniProt P09429 179-186, also: biotinylated, site not given here); experiment: as above
T6 peptide (looked up): EKSKKKKE
Description: as §1

[4] = molecular target: T2, HMG1 B Box peptide amino acids 91-169; experiment: ELISA, HMG1 B Box peptide 91-169 coated at 10 ug/ml, antibody titrated, OD 450
Summary of the method: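 Plates blocked with 4% milk/PBS, or biotinylated peptides captured on avidin wells after 1% BSA blocking (30 min RT). Human anti-HMG1 antibodies titrated or serially diluted from 10 μg/ml, detected with anti-human IgG-HRP and TMB substrate, absorbance at 450 nm.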

T4 sequence (P09429 whole entry, the tested form may be a part): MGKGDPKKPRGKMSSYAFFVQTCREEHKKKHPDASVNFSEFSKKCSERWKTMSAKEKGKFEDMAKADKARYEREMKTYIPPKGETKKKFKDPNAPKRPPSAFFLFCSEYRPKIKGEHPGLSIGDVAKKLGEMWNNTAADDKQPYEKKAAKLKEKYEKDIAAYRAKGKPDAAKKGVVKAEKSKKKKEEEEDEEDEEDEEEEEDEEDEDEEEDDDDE

B1: human anti-HMG1 antibody G4 (antibody, IgG1, V domains shown)
VH: EVQLLESGGGLVQPGGSLRLSCAASGFTFSWYDMTWVRQAPGKGLEWVSSISPSGGYTKYADSVKGRFTISRDNSKNTLYLQMNSLRAEDTAVYYCTTEFYDYLDVWGKGTTVTVSS
VL: DIQMTQSPGTLSLSPGEGATLSCRASQSVSSTYLAWYQQKPGQAPRLLIYEASKRATGTPARFSGSGSGTDFTLSISSLEPEDFAVYYCQHRHNWPPQWTFGQGTKVEVK
notes: full length IgG1 made from a human Fab phage clone; also called ATCC PTA-6258
binding result [1]: no binding (tested: 10 ug/mL (single concentration)) | binding result [2]: binds | binding result (HMGB1 peptide 106-123): binds

B2: human anti-HMG1 antibody S16 (antibody, IgG1, V domains shown)
VH: EVQLLESGGGLVQPGGSLRLSCAASGFTFSWYSMLWVRQAPGKGLEWVSYISPSGGFTNYADSVKGRFTISRDNSKNTLYLQMNSLRAEDTAVYYCARWDYNSGWYYDHWGQGTLVTVSS
VL: DIQMTQSPDTLSLSPGERATLSCRASQSVNSRNLAWYQQKPGQAPRLLIYGASTRATGIPDRFSGSVSGTEFTLTISSLQPDDFATYYCQQYNSYFTFGQGTKLEIK
notes: full length IgG1 made from a human Fab phage clone; also called ATCC PTA-6259
percent inhibition of HMG1 binding to RAGE [3]: ≥ 35% | binding result [2]: binds | binding result (HMGB1 peptide 166-183): binds | binding result (HMGB1 peptide 179-186): binds

B3: human anti-HMG1 antibody E11 (antibody, IgG1, V domains shown)
VH: EVQLLESGGGLVQPGGSLRLSCAASGFTFSRYQMNWVRQAPGKGLEWVSSISPSGGHTHYADSVKGRFTISRDNSKNTLYLQMNSLRAEDTAVYYCAKDGRQGKISTVDHWGQGTLVTVSS
VL: DIQMTQSPGTLSLSPGERATLSCRASQSVRSNFLAWYQQKPGQAPRLLIYGASRRASGIPDRFSGSGFGADFTLSISRLEPEDFAVYYCQQYGSSPNTFGQGSRVEIK
notes: full length IgG1 made from a human Fab phage clone
binding result [4]: no binding (tested: 10 ug/ml (log 1.0))

B4: human anti-HMG1 antibody S6 (antibody, V domains shown)
VH: EVQLLESGGGLVQPGGSLRLSCAASGFTFSWYDMSWVRQAPGKGLEWVSRISPSGGYTMYADSVKGRFTISRDNSKNTLYLQMNSLRAEDTAVYYCARLEVGATSGGTAFDIWGQGTMVTVSS
VL: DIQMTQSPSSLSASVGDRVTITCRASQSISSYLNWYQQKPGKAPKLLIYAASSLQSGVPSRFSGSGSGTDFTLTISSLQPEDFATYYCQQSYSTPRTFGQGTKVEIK
notes: full length IgG1 made from a human Fab phage clone; two paragraphs print 'S4' for the PTA-6143 deposit; also called ATCC PTA-6143
percent inhibition of HMG1 binding to RAGE [3]: ≥ 35% | binding result [1]: no binding (tested: 10 ug/mL (single concentration)) | binding result [4]: no binding (tested: 10 ug/ml (log 1.0))
